# Reference: paper PMC5397179 (2017)
# B1: Biotinylated full length PcrA (Geobacillus stearothermophilus), wild type [modified: biotin; biotin] [Geobacillus stearothermophilus] / UvrB, Bacillus subtilis [B. subtilis 168 (endogenous in the cell extract)] (parent complex)
# chain 1: MNFLSEQLLAHLNKEQQEAVRTTEGPLLIMAGAGSGKTRVLTHRIAYLMAEKHVAPWNILAITFTNKAAREMRERVQSLLGGAAEDVWISTFHSMCVRILRRDIDRIGINRNFSILDPTDQLSVMKTILKEKNIDPKKFEPRTILGTISAAKNELLPPEQFAKRASTYYEKVVSDVYQEYQQRLLRNHSLDFDDLIMTTIQLFDRVPDVLHYYQYKFQYIHIDEYQDTNRAQYTLVKKLAERFQNICAVGDADQSIYRWRGADIQNILSFERDYPNAKVILLEQNYRSTKRILQAANEVIEHNVNRKPKRIWTENPEGKPILYYEAMNEADEAQFVAGRIREAVERGERRYRDFAVLYRTNAQSRVMEEMLLKANIPYQIVGGLKFYDRKEIKDILAYLRVIANPDDDLSLLRIINVPKRGIGASTIDKLVRYAADHELSLFEALGELEMIGLGAKAAGALAAFRSQLEQWTQLQEYVSVTELVEEVLDKSGYREMLKAERTIEAQSRLENLDEFLSVTKHFENVSDDKSLIAFLTDLALISDLDELDGTEQAAEGDAVMLMTLHAAKGLEFPVVFLIGMEEGIFPHNRSLEDDDEMEEERRLAYVGITRAEEELVLTSAQMRTLFGNIQMDPPSRFLNEIPAHLLETASRRQAGASRPAVSRPQASGAVGSWKVGDRANHRKWGIGTVVSVRGGGDDQELDIAFPSPIGIKRLLAKFAPIEKV
# chain 2: MKDRFELVSKYQPQGDQPKAIEKLVKGIQEGKKHQTLLGATGTGKTFTVSNLIKEVNKPTLVIAHNKTLAGQLYSEFKEFFPNNAVEYFVSYYDYYQPEAYVPQTDTFIEKDASINDEIDKLRHSATSALFERRDVIIIASVSCIYGLGSPEEYREMVVSLRTEMEIERNELLRKLVDIQYARNDIDFQRGTFRVRGDVVEIFPASRDEHCVRVEFFGDEIERIREVDALTGEILGDRDHVAIFPASHFVTRAEKMEKAIQNIEKELEEQLKVMHENGKLLEAQRLEQRTRYDLEMMREMGFCSGIENYSRHLTLRPPGSTPYTLLDYFPDDFMIVVDESHVTIPQVRGMFNGDQARKQVLVDHGFRLPSALDNRPLRFEEFEKHMHNIVYVSATPGPYEIEHTDEMVEQIIRPTGLLDPLIDVRPIEGQIDDLIGEIQARIERNERVLVTTLTKKMSEDLTDYLKEIGIKVNYLHSEIKTLERIEIIRDLRLGKYDVLVGINLLREGLDIPEVSLVAILDADKEGFLRSERSLIQTIGRAARNAEGRVIMYADKITKSMEIAINETKRRREQQERFNEEHGITPKTINKEIRDVIRATVAAEDKAEYKTKAAPKLSKMTKKERQKVVEQMEHEMKEAAKALDFERAAELRDLLLELKAEG
# B2: Biotinylated full length PcrA (Geobacillus stearothermophilus), wild type [modified: biotin; biotin] [Geobacillus stearothermophilus] / LigA (NAD+-dependent DNA ligase), Bacillus subtilis [B. subtilis 168 (endogenous in the cell extract)] (parent complex)
# chain 1: B1 chain 1
# chain 2: MDKETAKQRAEELRRTINKYSYEYYTLDEPSVPDAEYDRLMQELIAIEEEHPDLRTPDSPTQRVGGAVLEAFQKVTHGTPMLSLGNAFNADDLRDFDRRVRQSVGDDVAYNVELKIDGLAVSLRYEDGYFVRGATRGDGTTGEDITENLKTIRNIPLKMNRELSIEVRGEAYMPKRSFEALNEERIKNEEEPFANPRNAAAGSLRQLDPKIAAKRNLDIFVYSIAELDEMGVETQSQGLDFLDELGFKTNQERKKCGSIEEVITLIDELQAKRADLPYEIDGIVIKVDSLDQQEELGFTAKSPRWAIAYKFPAEEVVTKLLDIELNVGRTGVITPTAILEPVKVAGTTVSRASLHNEDLIKEKDIRILDKVVVKKAGDIIPEVVNVLVDQRTGEEKEFSMPTECPECGSELVRIEGEVALRCINPECPAQIREGLIHFVSRNAMNIDGLGERVITQLFEENLVRNVADLYKLTKERVIQLERMGEKSTENLISSIQKSKENSLERLLFGLGIRFIGSKAAKTLAMHFESLENLKKASKEELLAVDEIGEKMADAVITYFHKEEMLELLNELQELGVNTLYKGPKKVKAEDSDSYFAGKTIVLTGKLEELSRNEAKAQIEALGGKLTGSVSKNTDLVIAGEAAGSKLTKAQELNIEVWNEEQLMGELKK
# B3: Biotinylated full length PcrA (Geobacillus stearothermophilus), wild type [modified: biotin; biotin] [Geobacillus stearothermophilus] / DNA pol I, Bacillus subtilis [B. subtilis 168 (endogenous in the cell extract)] (parent complex)
# chain 1: B1 chain 1
# chain 2: MTERKKLVLVDGNSLAYRAFFALPLLSNDKGVHTNAVYGFAMILMKMLEDEKPTHMLVAFDAGKTTFRHGTFKEYKGGRQKTPPELSEQMPFIRELLDAYQISRYELEQYEADDIIGTLAKSAEKDGFEVKVFSGDKDLTQLATDKTTVAITRKGITDVEFYTPEHVKEKYGLTPEQIIDMKGLMGDSSDNIPGVPGVGEKTAIKLLKQFDSVEKLLESIDEVSGKKLKEKLEEFKDQALMSKELATIMTDAPIEVSVSGLEYQGFNREQVIAIFKDLGFNTLLERLGEDSAEAEQDQSLEDINVKTVTDVTSDILVSPSAFVVEQIGDNYHEEPILGFSIVNETGAYFIPKDIAVESEVFKEWVENDEQKKWVFDSKRAVVALRWQGIELKGAEFDTLLAAYIINPGNSYDDVASVAKDYGLHIVSSDESVYGKGAKRAVPSEDVLSEHLGRKALAIQSLREKLVQELENNDQLELFEELEMPLALILGEMESTGVKVDVDRLKRMGEELGAKLKEYEEKIHEIAGEPFNINSPKQLGVILFEKIGLPVVKKTKTGYSTSADVLEKLADKHDIVDYILQYRQIGKLQSTYIEGLLKVTRPDSHKVHTRFNQALTQTGRLSSTDPNLQNIPIRLEEGRKIRQAFVPSEKDWLIFAADYSQIELRVLAHISKDENLIEAFTNDMDIHTKTAMDVFHVAKDEVTSAMRRQAKAVNFGIVYGISDYGLSQNLGITRKEAGAFIDRYLESFQGVKAYMEDSVQEAKQKGYVTTLMHRRRYIPELTSRNFNIRSFAERTAMNTPIQGSAADIIKKAMIDMAAKLKEKQLKARLLLQVHDELIFEAPKEEIEILEKLVPEVMEHALALDVPLKVDFASGPSWYDAK
# Variants of: B1
# Experiment: pulldown quantified by mass spectrometry; parent: 12; read off a plot
row,Variant,screen value
1,chain 1 L714A,~2.3
2,chain 1 K712A,~0

# Variants of: B2
# Experiment: pulldown quantified by mass spectrometry; parent: 26; read off a plot
row,Variant,screen value
1,chain 1 L714A,~25
2,chain 1 K712A,~21

# Variants of: B3
# Experiment: pulldown quantified by mass spectrometry; parent: 97; read off a plot
row,Variant,screen value
1,chain 1 K712A,~49
2,chain 1 L714A,~70
